± gives the standard deviation.

This data set can be described thus: collision cross section of modified peptide (TIMS, N2, iRT-aligned); higher = larger / more extended gas-phase ion. In short, it runs like this: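 Collision cross section was derived from the Mason-Schamp equation. Each value averages 1–3 technical replicates of the most abundant feature per charge state, measured on a timsTOF Pro/HT in dda-PASEF mode (nitrogen, ~2.4 mbar) after a 120-min nanoflow C18 gradient at 60 °C. Synthetic peptide pools (~100 fmol/µL in 2% acetonitrile/0.1% formic acid, iRT standard spiked 1:40) were identified with MaxQuant, and 1/K0 was calibrated with three reference ions and aligned run-wise to the median iRT peptide deviation.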

Setting [1] is: charge state: 2, modification: Butyryl.
[2] abbreviates: charge state: 3, modification: Butyryl.
Setting [3] is: charge state: 2, modification: Crotonyl.
Setting [4] is: charge state: 3, modification: Crotonyl.
[5] abbreviates: charge state: 3, modification: Dimethyl (K).
Setting [6] is: charge state: 2, modification: Formyl.
Setting [7] is: charge state: 3, modification: Formyl.
Setting [8] is: charge state: 2, modification: Glutarylation.
Where [9] appears, read: charge state: 3, modification: Glutarylation.
Setting [10] is: charge state: 2, modification: GlyGly (K).
Where [11] appears, read: charge state: 3, modification: GlyGly (K).
Where [12] appears, read: charge state: 3, modification: Malonyl.
The mark [13] stands for this setting: charge state: 2, modification: Methyl (K).
Where [14] appears, read: charge state: 3, modification: Methyl (K).
The mark [15] stands for this setting: charge state: 2, modification: Succinyl.
[16] abbreviates: charge state: 3, modification: Succinyl.
Setting [17] is: charge state: 3, modification: Trimethyl (K).
The mark [18] stands for this setting: charge state: 2, modification: hydroxyisobutyryl.
[19] abbreviates: charge state: 3, modification: hydroxyisobutyryl.
Setting [20] is: charge state: 2, modification: Acetyl (K).
Setting [21] is: charge state: 3, modification: Acetyl (K).
The mark [22] stands for this setting: charge state: 2, modification: Dimethyl (K).
[23] abbreviates: charge state: 2, modification: Malonyl.
The mark [24] stands for this setting: charge state: 2, modification: Trimethyl (K).
Where [25] appears, read: charge state: 2, modification: Hydroxyproline.
[26] abbreviates: charge state: 3, modification: Hydroxyproline.

Regarding “VGIDTPDIDIHGPEGKLK [_VGIDTPDIDIHGPEGK(Butyryl)LK_]”, the collision cross section is recorded as 496.6 ± 1 Å² under setting [1] and 542.04 ± 1.1 Å² under setting [2]. The sequence “VGIDTPDIDIHGPEGKLK [_VGIDTPDIDIHGPEGK(Crotonyl)LK_]” gave a collision cross section under setting [3] of 496.91 Å² and a collision cross section under setting [4] of 540.02 ± 1.3 Å². Sequence “VGIDTPDIDIHGPEGKLK [_VGIDTPDIDIHGPEGK(Dimethyl (K))LK_]” came in with a collision cross section under setting [5] of 537.38 ± 0.61 Å². As to “VGIDTPDIDIHGPEGKLK [_VGIDTPDIDIHGPEGK(Formyl)LK_]”, the collision cross section is, setting by setting: under setting [6], 485.77 ± 1.5 Å²; under setting [7], 533.35 ± 1.3 Å². Turning to “VGIDTPDIDIHGPEGKLK [_VGIDTPDIDIHGPEGK(Gluratylation)LK_]”, the collision cross section runs as follows: under setting [8], 497.76 ± 0.79 Å²; under setting [9], 542.69 ± 1.1 Å². With “VGIDTPDIDIHGPEGKLK [_VGIDTPDIDIHGPEGK(GlyGly (K))LK_]”, the collision cross section is on record as 467.27 Å² under setting [10] and 525.5 ± 1.3 Å² under setting [11].

“VGIDTPDIDIHGPEGKLK [_VGIDTPDIDIHGPEGK(Malonyl)LK_]” registered a collision cross section under setting [12] of 540.98 Å². For “VGIDTPDIDIHGPEGKLK [_VGIDTPDIDIHGPEGK(Methyl (K))LK_]”, the collision cross section worked out at 463.74 Å² under setting [13] and 542.59 ± 0.45 Å² under setting [14].

In the case of “VGIDTPDIDIHGPEGKLK [_VGIDTPDIDIHGPEGK(Succinyl)LK_]”, the collision cross section under setting [15] worked out at 494.78 Å² and the collision cross section under setting [16] is given as 540.29 ± 1.1 Å². “VGIDTPDIDIHGPEGKLK [_VGIDTPDIDIHGPEGK(Trimethyl (K))LK_]”: the collision cross section under setting [17] is given as 543.29 ± 0.9 Å². Turning to “VGIDTPDIDIHGPEGKLK [_VGIDTPDIDIHGPEGK(hydroxyisobutyryl)LK_]”, the collision cross section came out at 500.35 ± 0.99 Å² under setting [18] and 542.95 ± 2 Å² under setting [19]. With “VGLQVVAVKAPGFGDNR [_VGLQVVAVK(Acetyl (K))APGFGDNR_]”, the collision cross section reads like this: under setting [20], 442.66 ± 2 Å²; under setting [21], 493.83 ± 2.3 Å². In the case of “VGLQVVAVKAPGFGDNR [_VGLQVVAVK(Butyryl)APGFGDNR_]”, the collision cross section reads like this: under setting [1], 450.45 ± 0.52 Å²; under setting [2], 500.38 ± 1.9 Å². Take “VGLQVVAVKAPGFGDNR [_VGLQVVAVK(Crotonyl)APGFGDNR_]”: the collision cross section reads like this: under setting [3], 449.86 ± 0.94 Å²; under setting [4], 499.08 ± 1.6 Å². “VGLQVVAVKAPGFGDNR [_VGLQVVAVK(Dimethyl (K))APGFGDNR_]” returned a collision cross section under setting [22] of 465.4 ± 1.7 Å² and a collision cross section under setting [5] of 490.92 ± 1.2 Å². Consider “VGLQVVAVKAPGFGDNR [_VGLQVVAVK(Formyl)APGFGDNR_]”, for which the collision cross section under setting [6] amounted to 440.17 ± 1.2 Å² and the collision cross section under setting [7] amounted to 529.54 ± 3 Å². The sequence “VGLQVVAVKAPGFGDNR [_VGLQVVAVK(Gluratylation)APGFGDNR_]” showed a collision cross section under setting [8] of 447.64 ± 0.95 Å² and a collision cross section under setting [9] of 510.32 ± 1 Å². As for “VGLQVVAVKAPGFGDNR [_VGLQVVAVK(GlyGly (K))APGFGDNR_]”, the collision cross section came out at 471.7 ± 1.6 Å² under setting [10] and 536.75 ± 1.1 Å² under setting [11].

In turn, “VGLQVVAVKAPGFGDNR [_VGLQVVAVK(Malonyl)APGFGDNR_]” had a collision cross section under setting [23] of 445.13 ± 1 Å² and a collision cross section under setting [12] of 541.36 ± 0.027 Å². Turning to “VGLQVVAVKAPGFGDNR [_VGLQVVAVK(Methyl (K))APGFGDNR_]”, the collision cross section is, setting by setting: under setting [13], 454.02 ± 2.2 Å²; under setting [14], 491.77 ± 3.2 Å².

Take “VGLQVVAVKAPGFGDNR [_VGLQVVAVK(Succinyl)APGFGDNR_]”: the collision cross section was found to be 449.31 ± 0.96 Å² under setting [15] and 542.29 ± 1.1 Å² under setting [16]. As for “VGLQVVAVKAPGFGDNR [_VGLQVVAVK(Trimethyl (K))APGFGDNR_]”, the collision cross section was determined as 473 Å² under setting [24] and 497.24 ± 1.6 Å² under setting [17].

As for “VGLQVVAVKAPGFGDNR [_VGLQVVAVK(hydroxyisobutyryl)APGFGDNR_]”, the collision cross section under setting [18] was 453.58 ± 0.89 Å² and the collision cross section under setting [19] was 502.92 ± 2.8 Å².

On to “VGTASVLQPVKK [_VGTASVLQPVK(Acetyl (K))K_]”, for which, under setting [20], the collision cross section was found to be 379.84 ± 0.47 Å².

For the setting “charge state: 2, modification: Biotin”, VGTASVLQPVKK [_VGTASVLQPVK(Biotin)K_] registered a collision cross section of 406.39 ± 1.1 Å². VGTASVLQPVKK [_VGTASVLQPVK(Butyryl)K_] gave a collision cross section under setting [1] of 385.91 ± 0.85 Å².

In turn, VGTASVLQPVKK [_VGTASVLQPVK(Crotonyl)K_] showed a collision cross section under setting [3] of 387.11 ± 0.8 Å².

For “VGTASVLQPVKK [_VGTASVLQPVK(Dimethyl (K))K_]”, the collision cross section under setting [22] came out at 391.72 ± 3 Å² and the collision cross section under setting [5] was found to be 440.56 ± 1.6 Å². On to VGTASVLQPVKK [_VGTASVLQPVK(Formyl)K_], for which the collision cross section under setting [6] stood at 375.49 ± 0.89 Å².

Consider “VGTASVLQPVKK [_VGTASVLQPVK(Gluratylation)K_]”, for which the collision cross section reads like this: under setting [8], 391.34 ± 0.52 Å²; under setting [9], 415.52 ± 3.5 Å². Consider “VGTASVLQPVKK [_VGTASVLQPVK(GlyGly (K))K_]”, for which the collision cross section turned out to be 404.53 ± 0.36 Å² under setting [10] and 466.32 ± 0.78 Å² under setting [11]. For VGTASVLQPVKK [_VGTASVLQPVK(Malonyl)K_], the collision cross section under setting [23] is reported as 381.57 ± 0.0073 Å². Turning to “VGTASVLQPVKK [_VGTASVLQPVK(Methyl (K))K_]”, the collision cross section was 392.83 ± 0.43 Å² under setting [13] and 460.66 ± 3.8 Å² under setting [14]. Regarding “VGTASVLQPVKK [_VGTASVLQPVK(Propionyl)K_]”, under “charge state: 2, modification: Propionyl”, the collision cross section amounted to 382.42 ± 0.33 Å². For VGTASVLQPVKK [_VGTASVLQPVK(Succinyl)K_], the collision cross section by setting is: under setting [15], 383.62 ± 0.87 Å²; under setting [16], 412.94 ± 4.4 Å². Regarding “VGTASVLQPVKK [_VGTASVLQPVK(Trimethyl (K))K_]”, the collision cross section is, setting by setting: under setting [24], 394.06 ± 0.62 Å²; under setting [17], 455.76 ± 1.5 Å². On to “VGTASVLQPVKK [_VGTASVLQPVK(hydroxyisobutyryl)K_]”, for which the collision cross section turned out to be 388.32 ± 0.29 Å² under setting [18] and 413.48 ± 1.6 Å² under setting [19]. Take “VGVEAKQPNSAIR [_VGVEAKQP(Hydroxyproline)NSAIR_]”: the collision cross section was found to be 405.11 ± 0.27 Å² under setting [25] and 482.65 ± 0.83 Å² under setting [26]. On to “VGVEVPDVNIEGPEGKLK [_VGVEVPDVNIEGPEGK(Acetyl (K))LK_]”, for which the collision cross section under setting [20] is listed as 456.04 ± 2.4 Å² and the collision cross section under setting [21] turned out to be 513.89 Å².

The sequence “VGVEVPDVNIEGPEGKLK [_VGVEVPDVNIEGPEGK(Butyryl)LK_]” gave a collision cross section under setting [1] of 461.93 ± 0.5 Å². Under setting [3], “VGVEVPDVNIEGPEGKLK [_VGVEVPDVNIEGPEGK(Crotonyl)LK_]” had a collision cross section of 462.4 ± 1.4 Å². Turning to “VGVEVPDVNIEGPEGKLK [_VGVEVPDVNIEGPEGK(Dimethyl (K))LK_]”, the collision cross section reads like this: under setting [22], 456.47 ± 2.5 Å²; under setting [5], 540.33 ± 0.77 Å².

Take “VGVEVPDVNIEGPEGKLK [_VGVEVPDVNIEGPEGK(Formyl)LK_]”: the collision cross section under setting [6] is on record as 455.9 ± 1.7 Å². Regarding “VGVEVPDVNIEGPEGKLK [_VGVEVPDVNIEGPEGK(Gluratylation)LK_]”, the collision cross section by setting is: under setting [8], 461.98 ± 1.5 Å²; under setting [9], 531 ± 29 Å². As for “VGVEVPDVNIEGPEGKLK [_VGVEVPDVNIEGPEGK(GlyGly (K))LK_]”, the collision cross section runs as follows: under setting [10], 464.33 ± 1.3 Å²; under setting [11], 509.72 ± 1.9 Å².

Regarding “VGVEVPDVNIEGPEGKLK [_VGVEVPDVNIEGPEGK(Malonyl)LK_]”, the collision cross section under setting [23] came out at 458.25 ± 0.64 Å². As for “VGVEVPDVNIEGPEGKLK [_VGVEVPDVNIEGPEGK(Methyl (K))LK_]”, the collision cross section stood at 459.11 ± 16 Å² under setting [13] and 535.61 ± 7.1 Å² under setting [14]. As to “VGVEVPDVNIEGPEGKLK [_VGVEVPDVNIEGPEGK(Succinyl)LK_]”, the collision cross section was determined as 461.15 ± 2.6 Å² under setting [15] and 499.18 Å² under setting [16].

Regarding “VGVEVPDVNIEGPEGKLK [_VGVEVPDVNIEGPEGK(Trimethyl (K))LK_]”, the collision cross section runs as follows: under setting [24], 479.14 ± 17 Å²; under setting [17], 530.81 ± 6.1 Å².

For the sequence “VGVEVPDVNIEGPEGKLK [_VGVEVPDVNIEGPEGK(hydroxyisobutyryl)LK_]”, the collision cross section under setting [18] turned out to be 459.37 ± 1.3 Å². Consider “VGYPGPSGPLGAR [_VGYP(Hydroxyproline)GPSGPLGAR_]”, for which the collision cross section is, setting by setting: under setting [25], 356.91 ± 0.79 Å²; under setting [26], 437.31 ± 1.7 Å².

On to “VGYPGPSGPLGARGIPGIK [_VGYP(Hydroxyproline)GPSGPLGARGIPGIK_]”, for which the collision cross section runs as follows: under setting [25], 446.49 ± 1.1 Å²; under setting [26], 508.9 ± 31 Å².

The sequence VHATSTYR [_VHATSTY(Nitro (Y))R_] showed a collision cross section (charge state: 2, modification: Nitro (Y)) of 330 ± 0.55 Å² and a collision cross section (charge state: 3, modification: Nitro (Y)) of 400.02 ± 0.83 Å².

The record behind these values is the supplement of paper PMC10598134.
